B1: human Fab DDF-RuV1 (Fab, V domains shown)
VH: LEQSGAEVKKPGENLKISCEASGYNFVNHWIGWVRQMPGRGLEWMGRIYPGDSETRFSPSFQGQVTISVDKTLSTASLQWNSLKTSDSATYYCVTLGRWSSWQGGALSWGQGTRVIVSS
VL: ELTQSPDSLAVSLGERATINCKSSQSILSTSKNKNYLAWYQQKPGQPPKLLIYWASTREDGVPDRFSGSGAGTDFSLTISSLQAEDVAVYYCQQRRSWPPTFGQGTKLEIKR
B2: human Fab DDF-RuV2 (Fab, V domains shown)
VH: LESGGGVVQPGRSLRLSCAASGFTFSTYGMHWVRQAPGKGLEWVAVVSYDGTKEYYSDSVKGRFTISRDNSKKMVYLQMNSLRAEDTAVYYCAKEPPRRGFYWYFDYWGQGTLVTVSS
VL: ELTQSPSSLSASVGDRVTITCRASQDISNYLAWFQQRPGKVPNLLIYAASTLQSGVPSRFSGSGSGTEFTLTISSLQPEDGASYYCQKYDGAPWTFGQGTKVEIKR

Target: T1, Bovine Serum Albumin (bovine, UniProt P02769 25-607)
T1 construct: also called BSA
T1 sequence (P02769 25-607 limits assumed): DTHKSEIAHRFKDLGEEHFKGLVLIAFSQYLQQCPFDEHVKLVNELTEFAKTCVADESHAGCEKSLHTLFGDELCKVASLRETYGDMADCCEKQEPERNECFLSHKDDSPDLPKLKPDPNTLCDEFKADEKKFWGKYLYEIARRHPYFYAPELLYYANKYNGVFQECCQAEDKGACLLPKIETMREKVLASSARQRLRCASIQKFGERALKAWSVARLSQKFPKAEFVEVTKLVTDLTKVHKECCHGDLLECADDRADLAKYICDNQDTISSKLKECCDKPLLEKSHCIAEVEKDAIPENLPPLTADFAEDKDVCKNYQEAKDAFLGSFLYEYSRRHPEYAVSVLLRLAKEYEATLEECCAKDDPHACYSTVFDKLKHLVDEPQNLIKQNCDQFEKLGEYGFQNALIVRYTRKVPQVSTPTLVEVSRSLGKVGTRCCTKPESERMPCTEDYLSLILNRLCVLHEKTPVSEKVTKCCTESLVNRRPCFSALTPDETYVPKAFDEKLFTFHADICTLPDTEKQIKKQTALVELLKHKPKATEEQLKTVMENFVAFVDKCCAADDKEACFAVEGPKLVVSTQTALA
Test: ELISA, antigen coated on plate, phage-displayed Fab

Row | Binder | binding result
1 | B1 | no binding
2 | B2 | no binding
